Key:
HLA-A*68:02 [1] = test: IEDB peptide-MHC binding, purified MHC/competitive/fluorescence; filed as Kd, often an IC50 or EC50 that approximates it; ≥ and ≤ were set here for values at or beyond the usual limits of such assays; details: source organism: Orthomarburgvirus marburgense
HLA-A*02:06 = test: as above; details: source organism: Orthomarburgvirus marburgense
HLA-B*15:17 [2] = test: as above; details: source organism: Orthomarburgvirus marburgense
HLA-A*02:01 [3] = test: as above; details: source organism: Orthomarburgvirus marburgense
HLA-A*01:01 [4] = test: as above; details: source organism: Orthomarburgvirus marburgense
HLA-B*35:01 = test: as above; details: source organism: Orthomarburgvirus marburgense
HLA-B*27:05 = test: IEDB peptide-MHC binding, purified MHC/direct/fluorescence; filed as Kd, often an IC50 or EC50 that approximates it; ≥ and ≤ were set here for values at or beyond the usual limits of such assays
HLA-B*15:01 [5] = test: as above
HLA-B*39:01 = test: as above
HLA-A*26:01 = test: as above
HLA-B*57:01 = test: as above
HLA-B*38:01 = test: as above
HLA-B*08:01 [6] = test: as above
HLA-B*46:01 = test: as above
HLA-B*40:01 = test: as above
HLA-B*07:02 = test: as above; details: source organism: Marburg virus - Musoke, Kenya, 1980
HLA-B*58:01 = test: as above
HLA-B*48:01 = test: as above
HLA-C*03:03 = test: as above; details: source organism: Orthomarburgvirus marburgense
HLA-B*18:01 = test: as above
HLA-A*24:02 [7] = test: IEDB peptide-MHC binding, purified MHC/competitive/fluorescence; ≥ and ≤ were set here for values at or beyond the usual limits of such assays
HLA-B*08:01 [8] = test: as above
HLA-B*51:01 = test: IEDB peptide-MHC binding, purified MHC/direct/fluorescence; filed as Kd, often an IC50 or EC50 that approximates it; ≥ and ≤ were set here for values at or beyond the usual limits of such assays; details: source organism: Mycobacterium tuberculosis
HLA-A*31:01 = test: as above; details: source organism: Mycobacterium tuberculosis
HLA-B*15:17 [9] = test: as above; details: source organism: Mycobacterium tuberculosis
HLA-A*02:01 [10] = test: as above
HLA-A*11:01 = test: as above; details: source organism: Mycobacterium tuberculosis
HLA-A*03:01 = test: as above; details: source organism: Mycobacterium tuberculosis
HLA-A*69:01 = test: as above
HLA-A*01:01 [11] = test: as above
HLA-A*24:02 [12] = test: IEDB peptide-MHC binding, purified MHC/competitive/fluorescence; filed as Kd, often an IC50 or EC50 that approximates it; ≥ and ≤ were set here for values at or beyond the usual limits of such assays
HLA-C*04:01 = test: IEDB peptide-MHC binding, purified MHC/direct/fluorescence; filed as Kd, often an IC50 or EC50 that approximates it; ≥ and ≤ were set here for values at or beyond the usual limits of such assays
HLA-B*08:01 [13] = test: IEDB peptide-MHC binding, purified MHC/competitive/fluorescence; filed as Kd, often an IC50 or EC50 that approximates it; ≥ and ≤ were set here for values at or beyond the usual limits of such assays; details: source organism: Mycobacterium tuberculosis variant bovis BCG str. Pasteur 1173P2
HLA-B*15:01 [14] = test: as above; details: source organism: Orthomarburgvirus marburgense
HLA-A*26:02 = test: as above; details: source organism: Orthomarburgvirus marburgense
HLA-A*68:02 [15] = test: IEDB peptide-MHC binding, purified MHC/direct/fluorescence; filed as Kd, often an IC50 or EC50 that approximates it; ≥ and ≤ were set here for values at or beyond the usual limits of such assays; details: source organism: Marburg virus - Musoke, Kenya, 1980
HLA-B*15:09 = test: as above; details: source organism: Ravn virus - Ravn, Kenya, 1987
HLA-B*08:02 = test: as above; details: source organism: Ravn virus - Ravn, Kenya, 1987
HLA-A*02:01 [16] = test: IEDB peptide-MHC binding, purified MHC/competitive/fluorescence; ≥ and ≤ were set here for values at or beyond the usual limits of such assays; details: source organism: Variola virus
HLA-B*15:01 [17] = test: as above; details: source organism: Zaire ebolavirus
[18] = source organism: Marburg virus - Musoke, Kenya, 1980
[19] = source organism: Ravn virus - Ravn, Kenya, 1987
[20] = source organism: Vaccinia virus Copenhagen
[21] = source organism: Mycobacterium tuberculosis
[22] = source organism: Mycobacterium tuberculosis str. Haarlem
[23] = source organism: Salmonella enterica subsp. enterica serovar Typhi str. CT18
[24] = source organism: Zaire ebolavirus
[25] = source organism: Rickettsia typhi str. Wilmington

In the case of ISDPLTSGL, the Kd (HLA-A*68:02 [1]) is reported as at least 20 µM, the Kd (HLA-A*02:06) is reported as 0.0206 µM and the Kd (HLA-B*15:17 [2]) is reported as 0.0132 µM. It also gave a Kd (HLA-A*02:01 [3]) of 0.0681 µM, a Kd (HLA-A*01:01 [4]) of 1.03 µM and a Kd (HLA-B*35:01) of at least 20 µM. It also gave a Kd (HLA-B*27:05; [18]) of at least 20 µM, a Kd (HLA-B*15:01 [5]; [18]) of at least 20 µM and a Kd (HLA-B*39:01; [18]) of at least 20 µM. It also gave a Kd (HLA-A*26:01; [19]) of at least 20 µM, a Kd (HLA-B*57:01; [18]) of at least 20 µM and a Kd (HLA-B*38:01; [19]) of 5.03 µM. It also gave a Kd (HLA-B*08:01 [6]; [19]) of at least 20 µM, a Kd (HLA-B*46:01; [18]) of at least 20 µM and a Kd (HLA-B*40:01; [18]) of at least 20 µM. The Kd (HLA-B*07:02) was at least 20 µM, the Kd (HLA-B*58:01; [18]) was 0.415 µM and the Kd (HLA-B*48:01; [18]) was at least 20 µM. It also gave a Kd (HLA-C*03:03) of at least 20 µM and a Kd (HLA-B*18:01; [18]) of at least 20 µM.

GYFLKIKVT gave an IC50 (HLA-A*24:02 [7]; [20]) of at least 215 µM and an IC50 (HLA-B*08:01 [8]; [20]) of at least 231 µM.

APAKKAAPA was tested, and the Kd (HLA-B*27:05; [21]) was at least 20 µM, the Kd (HLA-B*15:01 [5]; [21]) was at least 20 µM and the Kd (HLA-B*39:01; [22]) was at least 20 µM. It also gave a Kd (HLA-B*51:01) of at least 20 µM, a Kd (HLA-B*57:01; [21]) of at least 20 µM and a Kd (HLA-B*38:01; [22]) of at least 20 µM. It also gave a Kd (HLA-B*08:01 [6]; [22]) of 0.077 µM, a Kd (HLA-B*46:01; [21]) of at least 20 µM and a Kd (HLA-B*40:01; [21]) of at least 20 µM. The Kd (HLA-B*58:01; [21]) was at least 20 µM, the Kd (HLA-B*48:01; [21]) was at least 20 µM and the Kd (HLA-A*31:01) was at least 20 µM. It also gave a Kd (HLA-B*15:17 [9]) of at least 20 µM, a Kd (HLA-A*02:01 [10]; [21]) of at least 20 µM and a Kd (HLA-A*11:01) of at least 20 µM. It also gave a Kd (HLA-A*03:01) of at least 20 µM, a Kd (HLA-A*69:01; [21]) of at least 20 µM and a Kd (HLA-B*18:01; [21]) of at least 20 µM. It also gave a Kd (HLA-A*01:01 [11]; [21]) of at least 20 µM.

For IYASRPLDF, the Kd (HLA-A*24:02 [12]; [23]) was at most 0.0001 µM and the Kd (HLA-C*04:01; [23]) was at least 20 µM.

SPRSRNRSF was tested, and the Kd (HLA-B*08:01 [13]) was 0.123 µM, the Kd (HLA-B*27:05; [21]) was at least 20 µM and the Kd (HLA-B*15:01 [5]; [21]) was at least 20 µM. The Kd (HLA-B*39:01; [22]) was at least 20 µM, the Kd (HLA-B*51:01) was at least 20 µM and the Kd (HLA-A*26:01; [22]) was at least 20 µM. It also gave a Kd (HLA-B*57:01; [21]) of at least 20 µM, a Kd (HLA-B*38:01; [22]) of at least 20 µM and a Kd (HLA-B*46:01; [21]) of at least 20 µM. It also gave a Kd (HLA-B*40:01; [21]) of at least 20 µM, a Kd (HLA-B*58:01; [21]) of at least 20 µM and a Kd (HLA-B*48:01; [21]) of at least 20 µM. For the same sequence, the Kd (HLA-A*31:01) was at least 20 µM, the Kd (HLA-B*15:17 [9]) was at least 20 µM and the Kd (HLA-A*02:01 [10]; [21]) was at least 20 µM. It also gave a Kd (HLA-A*11:01) of at least 20 µM, a Kd (HLA-A*03:01) of at least 20 µM and a Kd (HLA-A*69:01; [21]) of at least 20 µM. For the same sequence, the Kd (HLA-B*18:01; [21]) was at least 20 µM and the Kd (HLA-A*01:01 [11]; [21]) was at least 20 µM.

Sequence IHLDKGGQF has a Kd (HLA-B*15:01 [14]) of at least 20 µM, a Kd (HLA-A*26:02) of at least 20 µM and a Kd (HLA-B*15:17 [2]) of at least 20 µM. It also gave a Kd (HLA-B*35:01) of at least 20 µM, a Kd (HLA-B*27:05; [18]) of at least 20 µM and a Kd (HLA-A*68:02 [15]) of at least 20 µM. For the same sequence, the Kd (HLA-B*39:01; [18]) was at least 20 µM, the Kd (HLA-A*26:01; [19]) was at least 20 µM and the Kd (HLA-B*57:01; [18]) was at least 20 µM. It also gave a Kd (HLA-B*38:01; [19]) of at least 20 µM, a Kd (HLA-B*08:01 [6]; [19]) of at least 20 µM and a Kd (HLA-B*46:01; [18]) of at least 20 µM. It also gave a Kd (HLA-B*40:01; [18]) of at least 20 µM, a Kd (HLA-B*07:02) of at least 20 µM and a Kd (HLA-B*58:01; [18]) of at least 20 µM. It also gave a Kd (HLA-B*48:01; [18]) of at least 20 µM, a Kd (HLA-A*02:01 [10]; [18]) of at least 20 µM and a Kd (HLA-B*15:09) of 7.14 µM. For the same sequence, the Kd (HLA-B*08:02) was at least 20 µM, the Kd (HLA-A*69:01; [18]) was at least 20 µM and the Kd (HLA-B*18:01; [18]) was at least 20 µM. It also gave a Kd (HLA-A*01:01 [11]; [18]) of at least 20 µM.

VMPLLVWLF gave a Kd (HLA-A*24:02 [12]; source organism: Campylobacter jejuni subsp. jejuni NCTC 11168 = ATCC 700819) of 0.0029 µM.

LSLPRIALV was tested, and the IC50 (HLA-B*08:01 [8]; source organism: Variola virus) was at least 285 µM and the IC50 (HLA-A*02:01 [16]) was 0.617 µM.

In the case of DRFKRTSFF, the IC50 (HLA-B*15:01 [17]) is reported as at least 181 µM, the IC50 (HLA-A*24:02 [7]; [24]) is reported as 1.22 µM and the IC50 (HLA-B*08:01 [8]; [24]) is reported as 5.43 µM.

Work on IYYWTAWLI yielded a Kd (HLA-A*24:02 [12]; [25]) of 0.0017 µM and a Kd (HLA-C*04:01; [25]) of at least 20 µM.

Source: the Immune Epitope Database (IEDB)
